Assay results taken from patent US20240226357A1, “Sanitization Method for Affinity Chromatography Matrices” (priority 2015, published 2024).

Experiment: LC chromatograms (LC-MS) of ligands before and after incubation in 0.1 M peracetic acid
Format: physicochemical
Settings: 1 h incubation in 0.1 M peracetic acid, UV 280 nm
Experimental: The kinetics was measured by Surface Plasmon Resonance on a Biacore™ instrument. […] 1 ml rPrL and KappaSelect ligand were diluted to 10 mg/ml. • 3. Reference sample (0 h) was withdrawn, 100 μl and buffer exchanged to 50 mM Ammonium Bicarbonate. • 4. 10% 1 M PAA was added and the incubations started. • 5. Samples were withdrawn after 1, 2, 4, 8, 16 and 24 h, 100 μl and buffer exchanged to 50 mM Ammonium Bicarbonate to stop the oxidation reaction. • 6. The concentrations were measured in all samples by measuring the UV absorbance at 276 nm. • 7. The samples were then analyzed on LC-MS and Biacore.

B1: rPrL: recombinant Protein L (protein)
chain: AVENKEETPETPETDSEEEVTIKANLIFANGSTQTAEFKGTFEKATSEAYAYADTLKKDNGEYTVDVADKGYTLNIKFAGKEKTPEEPKEEVTIKANLIYADGKTQTAEFKGTFEEATAEAYRYADALKKDNGEYTVDVADKGYTLNIKFAGKEKTPEEPKEEVTIKANLIYADGKTQTAEFKGTFEEATAEAYRYADLLAKENGKYTVDVADKGYTLNIKFAGKEKTPEEPKEEVTIKANLIYADGKTQTAEFKGTFAEATAEAYRYADLLAKENGKYTADLEDGGYTINIRFAGKKVDEKPEE
  LC chromatograms before and after SIP (degradation): no signs of degradation
